From article PMC9047656 (ACS Nano, 2022)

Biological target: the molecule itself
Test: SEC-MALS

B1: canavalin (natural protein, Canavalia ensiformis (jack bean), UniProt P50477 27-445, looked up)
chain: HSGHSGGEAEDESEESRAQNNPYLFRSNKFLTLFKNQHGSLRLLQRFNEDTEKLENLRDYRVLEYCSKPNTLLLPHHSDSDLLVLVLEGQAILVLVNPDGRDTYKLDQGDAIKIQAGTPFYLINPDNNQNLRILKFAITFRRPGTVEDFFLSSTKRLPSYLSAFSKNFLEASYDSPYDEIEQTLLQEEQEGVIVKMPKDQIQEISKHAQSSSRKTLSSQDKPFNLRSRDPIYSNNYGKLYEITPEKNSQLRDLDILLNCLQMNEGALFVPHYNSRATVILVANEGRAEVELVGLEQQQQQGLESMQLRRYAATLSEGDIIVIPSSFPVALKAASDLNMVGIGVNAENNERNFLAGHKENVIRQIPRQVSDLTFPGSGEEVEELLENQKESYFVDGQPRHIDAGGKARRAHLPNLFRTFY
stoichiometry N: 3
